Experimental data from patent publication US20120053125A1.

Columns and labels:
[1] = target: Protein Phosphatase-1 (PP1), purified catalytic subunit (New England BioLabs) (UniProt P62139); assay: cell-based or functional assay
[2] = target: endogenous type-1 protein phosphatase (PP1) of adult rat cardiomyocyte lysates (rat); assay: cell-based or functional assay

Chain of Protein Phosphatase-1 (PP1), purified catalytic subunit (New England BioLabs) (P62139 whole entry): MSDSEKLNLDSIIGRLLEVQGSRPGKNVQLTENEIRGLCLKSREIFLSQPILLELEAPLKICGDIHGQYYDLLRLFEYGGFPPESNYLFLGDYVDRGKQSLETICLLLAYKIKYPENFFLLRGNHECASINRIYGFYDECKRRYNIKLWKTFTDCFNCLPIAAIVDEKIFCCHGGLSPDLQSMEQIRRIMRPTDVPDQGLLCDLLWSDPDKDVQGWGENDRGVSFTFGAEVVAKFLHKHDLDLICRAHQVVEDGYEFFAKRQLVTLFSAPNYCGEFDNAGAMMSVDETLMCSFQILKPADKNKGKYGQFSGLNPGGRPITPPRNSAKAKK

IC50 of inhibition of PP1 activity (dephosphorylation of 32P-MyBP) [1] [nM]	PP1 activity remaining after PKA stimulation in infected rat cardiomyocytes [2] [fold]	increase of purified PP1c activity compared to I-1 wild-type [1] [%]	Binder	further results
3.2	–	–	PKA-phosphorylated human I-1 wild type (protein, phosphothreonine at Thr-35 (phosphorylated in vitro by PKA)) MEQDNSPRKIQFTVPLLEPHLDPEAAEQIRRRRPTPATLVLTSDQSSPEIDEDRIPNPHLKSTLAMSPRQRKKMTRITPTMKELQMMVEHHLGQQQQGEEPEGAAESTGTQESRPPGIPDTEVESRLGTSGTAKKTAECIPKTHERGSKEPSTKEPSTHIPPLDSKGANSV	–
–	2	–	human I-1 (S67D) (protein) MEQDNSPRKIQFTVPLLEPHLDPEAAEQIRRRRPTPATLVLTSDQSSPEIDEDRIPNPHLKSTLAMDPRQRKKMTRITPTMKELQMMVEHHLGQQQQGEEPEGAAESTGTQESRPPGIPDTEVESRLGTSGTAKKTAECIPKTHERGSKEPSTKEPSTHIPPLDSKGANSV	–
–	2	23	human I-1 (T75D) (protein) MEQDNSPRKIQFTVPLLEPHLDPEAAEQIRRRRPTPATLVLTSDQSSPEIDEDRIPNPHLKSTLAMSPRQRKKMDRITPTMKELQMMVEHHLGQQQQGEEPEGAAESTGTQESRPPGIPDTEVESRLGTSGTAKKTAECIPKTHERGSKEPSTKEPSTHIPPLDSKGANSV	increase in type-1 phosphatase activity in infected rat cardiomyocyte lysates compared to Ad.I-1WT and Ad.GFP [2]: 27%
–	2	–	human I-1 (S67D/T75D) (protein) MEQDNSPRKIQFTVPLLEPHLDPEAAEQIRRRRPTPATLVLTSDQSSPEIDEDRIPNPHLKSTLAMDPRQRKKMDRITPTMKELQMMVEHHLGQQQQGEEPEGAAESTGTQESRPPGIPDTEVESRLGTSGTAKKTAECIPKTHERGSKEPSTKEPSTHIPPLDSKGANSV	–
–	–	25	human I-1 (S67A) phosphorylated by PKC-α (protein, phosphothreonine at Thr-75 (phosphorylated in vitro by PKC-α; 0.35 mol Pi/mol protein)) MEQDNSPRKIQFTVPLLEPHLDPEAAEQIRRRRPTPATLVLTSDQSSPEIDEDRIPNPHLKSTLAMAPRQRKKMTRITPTMKELQMMVEHHLGQQQQGEEPEGAAESTGTQESRPPGIPDTEVESRLGTSGTAKKTAECIPKTHERGSKEPSTKEPSTHIPPLDSKGANSV	–
4.9	–	–	human I-1 wild type phosphorylated first by PKC-α and then by PKA (protein, phosphothreonine at Thr-35 (PKA); phosphoserine at Ser-67 and phosphothreonine at Thr-75 (PKC-α)) MEQDNSPRKIQFTVPLLEPHLDPEAAEQIRRRRPTPATLVLTSDQSSPEIDEDRIPNPHLKSTLAMSPRQRKKMTRITPTMKELQMMVEHHLGQQQQGEEPEGAAESTGTQESRPPGIPDTEVESRLGTSGTAKKTAECIPKTHERGSKEPSTKEPSTHIPPLDSKGANSV	–
